Test results published in patent US20260226176A1 (THERANOVIR, published 2026).

Key:
[1] = target: T1, NRP-1 peptide (Npep); experiment: ELISA, antibody 10 µg/ml, 2 µg immobilised Npep
T1 construct: also called synthetic peptide Npep
T1 peptide: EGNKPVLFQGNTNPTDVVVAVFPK

[2] = target: T2, recombinant murine NRP-1 (5994-N1-050, Bio-Techne) (murine, UniProt P97333 22-856); experiment: ELISA, antibody 10 µg/ml, 1 µg immobilised murine NRP-1
T2 construct: extracellular domain; bought protein; also called mouse recombinant NRP-1

[3] = target: T3, native human NRP-1 on the cell surface (human, UniProt O14786 22-923); experiment: flow cytometry, MDA-MB-231 cells, 10 ug/ml, with against without heparinase
T3 construct: whole, on cells; endogenous protein; isoform and glycosaminoglycan state on the cells not defined; also called native NRP-1 on MDA-MB-231 cells; native form of NRP-1 protein on the CTCs cell surface

[4] = target: T3, native human NRP-1 on the cell surface; experiment: flow cytometry, MDA-MB-231 cells, 40 ug/ml, +chondroitinase
Experimental: (§1) Chondroitinase (C2905, Sigma) was reconstituted in a 0.01% BSA aqueous solution. The MDA-MB-231 cells were treated with chondroitinase (1 U/ml) for 2 hours at 37° C. The cells were detached using cell dissociation solution non-enzymatic (C5914, Sigma). 300,000 cells per condition were washed with 2% FBS in PBS and then incubated with different antibodies of interest or their respective isotype controls at 40 μg/ml for 30 min at 4° C. After wash, an Alexa 488-conjugated anti-human immunoglobulin antibody (20022-1, Biotium) was added at 10 μg/ml for 30 min at 4° C. After a final wash, fluorescence, size and granularity of cells were measured by the LSR Fortessa cytometer (BD Biosciences).

[5] = target: T4, recombinant human NRP-1 (3870-N1-025, Bio-Techne) (human, UniProt O14786 22-856); experiment: ELISA, antibody 10 µg/ml, 1 µg immobilised human NRP-1
T4 construct: extracellular domain; bought protein; also called human recombinant NRP-1

[6] = target: DNA mismatch repair protein Msh2 (human) (UniProt P43246); experiment: co-IP from CTC41.5E lysate, LC-MS/MS, peak area against isotype IP
[7] = target: DNA repair protein complementing XP-C cells (human) (UniProt Q01831); experiment: as above
[8] = target: UV excision repair protein RAD23 homolog B (human) (UniProt P54727); experiment: as above
[9] = target: DNA-directed RNA polymerase I subunit RPA1 (human) (UniProt O95602); experiment: as above
[10] = target: DNA topoisomerase 1 (human) (UniProt P11387); experiment: as above
[11] = target: X-ray repair cross-complementing protein 6 (human) (UniProt P12956); experiment: as above
[12] = target: Replication protein A 70 kDa DNA-binding subunit (human) (UniProt P27694); experiment: as above
[13] = target: Histone H2A.Z (human) (UniProt P0C0S5); experiment: as above
[14] = target: Poly [ADP-ribose] polymerase 1 (human) (UniProt P09874); experiment: as above
[15] = target: Sister chromatid cohesion protein PDS5 homolog B (human) (UniProt Q9NTI5); experiment: as above
[16] = target: DNA topoisomerase 2-beta (human) (UniProt Q02880); experiment: as above
[17] = target: DNA topoisomerase 2-alpha (human) (UniProt P11388); experiment: as above
[18] = target: DNA mismatch repair protein Msh6 (human) (UniProt P52701); experiment: as above
[19] = target: DNA-dependent protein kinase catalytic subunit (DNA-PK) (human) (UniProt P78527); experiment: as above
[20] = target: Core histone macro-H2A.1 (human) (UniProt O75367); experiment: as above
[21] = target: Werner syndrome ATP-dependent helicase (human) (UniProt Q14191); experiment: as above
[22] = target: Poly [ADP-ribose] polymerase 2 (human) (UniProt Q9UGN5); experiment: as above
[23] = target: X-ray repair cross-complementing protein 5 (human) (UniProt P13010); experiment: as above
[24] = target: Histone H3.1 (human) (UniProt P68431); experiment: as above
[25] = target: DNA ligase 3 (human) (UniProt P49916); experiment: as above
[26] = target: FACT complex subunit SPT16 (human) (UniProt Q9Y5B9); experiment: as above
[27] = target: SWI/SNF-related matrix-associated actin-dependent regulator of chromatin subfamily A member 5 (human) (UniProt O60264); experiment: as above
[28] = target: T3, native human NRP-1 on the cell surface; experiment: flow cytometry, MDA-MB-231 cells, 40 ug/ml, with against without chondroitinase
Experimental: as §1

Absorbance [1]: 0.855
Absorbance [2]: 0.986
delta (% of control) [3]: -2.3%
percentage of binding [4]: 86.4%
Absorbance [5]: 0.953
Ratio Area V4/IgG4 [6]: 335
Ratio Area V4/IgG4 [7]: 480
Ratio Area V4/IgG4 [8]: 307
Ratio Area V4/IgG4 [9]: 785
Ratio Area V4/IgG4 [10]: 6880
Ratio Area V4/IgG4 [11]: 58.8
Ratio Area V4/IgG4 [12]: 13.6
Ratio Area V4/IgG4 [13]: 624
Ratio Area V4/IgG4 [14]: 709
Ratio Area V4/IgG4 [15]: 12.5
Ratio Area V4/IgG4 [16]: 50.1
Ratio Area V4/IgG4 [17]: 538
Ratio Area V4/IgG4 [18]: 813
Ratio Area V4/IgG4 [19]: 10.5
Ratio Area V4/IgG4 [20]: 8780
Ratio Area V4/IgG4 [21]: 759
Ratio Area V4/IgG4 [22]: 1
Ratio Area V4/IgG4 [23]: 38.7
Ratio Area V4/IgG4 [24]: 304
Ratio Area V4/IgG4 [25]: 7770
Ratio Area V4/IgG4 [26]: 5490
Ratio Area V4/IgG4 [27]: 589
delta (% of control) [28]: -6.8%
B1: variant 4 of a-NRP1_LEP n° 1 (antibody, V domains shown)
VH: EVQLVESGGGLVQPGGSLRLSCAASGFTFSSFGMHWVRQAPGKGLEWVAYISSGSSTIHYADSVKGRFTISRDNAKNSLYLQMNSLRAEDTAMYYCARRHYGSSRYWYFDVWGQGTTVTVSS
VL: EIVLTQSPATLSLSPGERATLSCRASQSVKSYLAWYQQKPGQAPRLLIYYASSRATGIPARFSGSGSGTDFTLTISSLEPEDFAVYYCQQYSESPYTFGQGTKLEIK
notes: humanized variant of 21B10; isotype control hIgG4; also called variant 4 a-NRP1_LEP; variant n°4 a-NRP1_LEP
